Measurements taken from patent US20200339967, “CAS12C COMPOSITIONS AND METHODS OF USE” (The Regents of the University of California, published 2020).

Experiments:
[1] = target: T1, Cas12c_1 (C2c3_1); assay: pulldown; trancRNA co-purified with Cas12c and guide RNA; RNA sequencing and urea-PAGE; long vs short form not distinguished in text
T1 chain: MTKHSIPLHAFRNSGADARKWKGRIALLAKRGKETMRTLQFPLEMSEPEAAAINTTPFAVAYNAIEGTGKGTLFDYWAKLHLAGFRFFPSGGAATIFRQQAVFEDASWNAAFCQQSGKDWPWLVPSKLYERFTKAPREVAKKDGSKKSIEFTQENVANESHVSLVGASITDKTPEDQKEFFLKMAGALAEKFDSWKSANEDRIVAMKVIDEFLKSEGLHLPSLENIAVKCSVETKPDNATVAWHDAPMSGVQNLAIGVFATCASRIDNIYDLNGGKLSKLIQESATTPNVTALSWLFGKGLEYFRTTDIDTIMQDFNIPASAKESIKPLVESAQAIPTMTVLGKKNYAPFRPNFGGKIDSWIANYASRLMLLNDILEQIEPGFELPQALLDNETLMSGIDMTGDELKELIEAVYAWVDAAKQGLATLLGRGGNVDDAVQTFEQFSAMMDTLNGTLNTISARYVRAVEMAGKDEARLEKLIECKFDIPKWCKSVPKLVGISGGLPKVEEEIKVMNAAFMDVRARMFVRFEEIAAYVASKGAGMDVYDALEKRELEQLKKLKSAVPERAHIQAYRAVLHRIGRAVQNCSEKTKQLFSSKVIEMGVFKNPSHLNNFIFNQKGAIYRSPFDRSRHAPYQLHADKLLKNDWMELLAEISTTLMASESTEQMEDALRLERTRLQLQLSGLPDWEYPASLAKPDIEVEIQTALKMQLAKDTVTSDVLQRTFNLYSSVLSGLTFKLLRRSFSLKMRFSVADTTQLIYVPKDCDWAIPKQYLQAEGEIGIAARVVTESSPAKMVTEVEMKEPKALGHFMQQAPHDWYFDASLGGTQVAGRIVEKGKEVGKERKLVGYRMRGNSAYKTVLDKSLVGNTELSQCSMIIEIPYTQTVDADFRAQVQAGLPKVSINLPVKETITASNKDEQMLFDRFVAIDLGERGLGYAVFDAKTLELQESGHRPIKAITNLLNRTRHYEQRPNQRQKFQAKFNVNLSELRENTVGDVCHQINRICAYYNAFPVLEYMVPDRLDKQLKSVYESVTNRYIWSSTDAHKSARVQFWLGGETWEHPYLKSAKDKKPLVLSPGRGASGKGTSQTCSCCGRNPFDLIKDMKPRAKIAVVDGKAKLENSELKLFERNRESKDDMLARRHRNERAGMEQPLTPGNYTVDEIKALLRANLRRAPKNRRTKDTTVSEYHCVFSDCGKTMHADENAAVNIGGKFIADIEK
Excerpt: FIG. 3. The Cas12c CRISPR/Cas locus (for the Cas12c_1 protein) was transferred to and expressed in E. coli. Results from the RNA mapping of the Cas12c locus are presented (Top). In addition, the Cas12c protein was tagged and purified, and the RNA that was associated with the protein was sequenced, and results from the RNA mapping are presented (bottom). Both mapping results indicated the existence of a highly transcribed non-coding transcript adjacent to the Cas1-encoding sequence but on the opposite side of the Cas1-encoding sequence as the CRISPR array (Small repeating aligned arrows represent the repeats of the CRISPR array). The highly transcribed noncoding RNA is not complementary to the directed repeat as are transactivating CRISPR RNAs (tracrRNA). The transactivating noncoding RNA is referred herein as “trancRNA”.
FIG. 4. RNAs that pulled down (co-purified) with the Cas12c protein were run on urea-PAGE gels, confirming the presence of guide RNA and trancRNA.

[2] = target: T1, Cas12c_1 (C2c3_1); assay: pulldown; trancRNA co-purified with Cas12c and guide RNA; long vs short form not distinguished in text

B1: Cas12c_1 trancRNA (long) (ssRNA)
RNA: AUACCACCCGUGCAUUUCUGGAUCAAUGAUCCGUACCUCAAUGUCCGGGCGCGCAGCUAGAGCGACCUGAAAUCUGCACGAAAACCGGCGAAAGCCGGUUUUUUGU
B1: binds [1].

B2: Cas12c_1 trancRNA (short) (ssRNA)
RNA: AUACCACCCGUGCAUUUCUGGAUCAAUGAUCCGUACCUCAAUGUCCGGGCGCGCAGCUAGAGCGACCUGAAAUCU
B2: binds [2].
